The results in this text go back to patent US20250171562A1.

Sequences and labels used below:
B1: CIgG4F5A1(G4S)2 (Fc fusion)
chain 1: GPPCPPCPAPEFLGGPSVFLFPPKPKDTLMISRTPEVTCVVVDVSQEDPEVQFNWYVDGVEVHNAKTKPREEQFNSTYRVVSVLTVLHQDWLNGKEYKCKVSNKGLPSSIEKTISKAKGQPREPQVYTLPPCQEEMTKNQVSLWCLVKGFYPSDIAVEWESNGQPENNYKTTPPVLDSDGSFFLYSRLTVDKSRWQEGNVFSCSVMHEALHNHYTQKSLSLSLGKGGGGSGGGGSDVQLQESGGGLVQPGGSLRLSCAASGSIFSIDIMGWYRQAPGKQRELVATMPEGNYINYADSVKGRLTLSRDKGKNTVYLQLNSLKPEDTAVYYCYGFGVREGRGNVYWGQGTQVTVS
chain 2: GPPCPPCPAPEFLGGPSVFLFPPKPKDTLMISRTPEVTCVVVDVSQEDPEVQFNWYVDGVEVHNAKTKPREEQFNSTYRVVSVLTVLHQDWLNGKEYKCKVSNKGLPSSIEKTISKAKGQPREPQVCTLPPSQEEMTKNQVSLSCAVKGFYPSDIAVEWESNGQPENNYKTTPPVLDSDGSFFLVSRLTVDKSRWQEGNVFSCSVMHEALHNHYTQKSLSLSLGKGGGGSGGGGSEVQLLESGGGLVQPGGSLRLSCAASGFTFGNYDMAWVRQAPGKRPEWVSSIDTGGDITHYADSVKGRFTISRDNAKNTLYLQMNSLRPEDTAVYWCATDEEYALGPNEFDYYGQGTLVTVSS
B2: CIgG4F4A1(G4S)3 (Fc fusion)
chain 1: GPPCPPCPAPEFLGGPSVFLFPPKPKDTLMISRTPEVTCVVVDVSQEDPEVQFNWYVDGVEVHNAKTKPREEQFNSTYRVVSVLTVLHQDWLNGKEYKCKVSNKGLPSSIEKTISKAKGQPREPQVYTLPPCQEEMTKNQVSLWCLVKGFYPSDIAVEWESNGQPENNYKTTPPVLDSDGSFFLYSRLTVDKSRWQEGNVFSCSVMHEALHNHYTQKSLSLSLGKGGGGSGGGGSGGGGSDVQLQESGGGLVQAGGSLRLSCAVSGLSFSSMGWFRQPPGKEREFVAAISLYSGSTYYADSVKGRFTISSDNAKSTVYLQMNSLKPEDAAVYFCAADRQRTWSTFYASRQATYNYWGQGTQVTVTS
chain 2: GPPCPPCPAPEFLGGPSVFLFPPKPKDTLMISRTPEVTCVVVDVSQEDPEVQFNWYVDGVEVHNAKTKPREEQFNSTYRVVSVLTVLHQDWLNGKEYKCKVSNKGLPSSIEKTISKAKGQPREPQVCTLPPSQEEMTKNQVSLSCAVKGFYPSDIAVEWESNGQPENNYKTTPPVLDSDGSFFLVSRLTVDKSRWQEGNVFSCSVMHEALHNHYTQKSLSLSLGKGGGGSGGGGSGGGGSEVQLLESGGGLVQPGGSLRLSCAASGFTFGNYDMAWVRQAPGKRPEWVSSIDTGGDITHYADSVKGRFTISRDNAKNTLYLQMNSLRPEDTAVYWCATDEEYALGPNEFDYYGQGTLVTVSS
B3: NIgG4F5A1(RS) (Fc fusion)
chain 1: DVQLQESGGGLVQPGGSLRLSCAASGSIFSIDIMGWYRQAPGKQRELVATMPEGNYINYADSVKGRLTLSRDKGKNTVYLQLNSLKPEDTAVYYCYGFGVREGRGNVYWGQGTQVTVSRSGPPCPPCPAPEFLGGPSVFLFPPKPKDTLMISRTPEVTCVVVDVSQEDPEVQFNWYVDGVEVHNAKTKPREEQFNSTYRVVSVLTVLHQDWLNGKEYKCKVSNKGLPSSIEKTISKAKGQPREPQVYTLPPCQEEMTKNQVSLWCLVKGFYPSDIAVEWESNGQPENNYKTTPPVLDSDGSFFLYSRLTVDKSRWQEGNVFSCSVMHEALHNHYTQKSLSLSLGK
chain 2: EVQLLESGGGLVQPGGSLRLSCAASGFTFGNYDMAWVRQAPGKRPEWVSSIDTGGDITHYADSVKGRFTISRDNAKNTLYLQMNSLRPEDTAVYWCATDEEYALGPNEFDYYGQGTLVTVSSRSGPPCPPCPAPEFLGGPSVFLFPPKPKDTLMISRTPEVTCVVVDVSQEDPEVQFNWYVDGVEVHNAKTKPREEQFNSTYRVVSVLTVLHQDWLNGKEYKCKVSNKGLPSSIEKTISKAKGQPREPQVCTLPPSQEEMTKNQVSLSCAVKGFYPSDIAVEWESNGQPENNYKTTPPVLDSDGSFFLVSRLTVDKSRWQEGNVFSCSVMHEALHNHYTQKSLSLSLGK
B4: CIgG4F5A1(G4S)1 (Fc fusion)
chain 1: GPPCPPCPAPEFLGGPSVFLFPPKPKDTLMISRTPEVTCVVVDVSQEDPEVQFNWYVDGVEVHNAKTKPREEQFNSTYRVVSVLTVLHQDWLNGKEYKCKVSNKGLPSSIEKTISKAKGQPREPQVYTLPPCQEEMTKNQVSLWCLVKGFYPSDIAVEWESNGQPENNYKTTPPVLDSDGSFFLYSRLTVDKSRWQEGNVFSCSVMHEALHNHYTQKSLSLSLGKGGGGSDVQLQESGGGLVQPGGSLRLSCAASGSIFSIDIMGWYRQAPGKQRELVATMPEGNYINYADSVKGRLTLSRDKGKNTVYLQLNSLKPEDTAVYYCYGFGVREGRGNVYWGQGTQVTVS
chain 2: GPPCPPCPAPEFLGGPSVFLFPPKPKDTLMISRTPEVTCVVVDVSQEDPEVQFNWYVDGVEVHNAKTKPREEQFNSTYRVVSVLTVLHQDWLNGKEYKCKVSNKGLPSSIEKTISKAKGQPREPQVCTLPPSQEEMTKNQVSLSCAVKGFYPSDIAVEWESNGQPENNYKTTPPVLDSDGSFFLVSRLTVDKSRWQEGNVFSCSVMHEALHNHYTQKSLSLSLGKGGGGSEVQLLESGGGLVQPGGSLRLSCAASGFTFGNYDMAWVRQAPGKRPEWVSSIDTGGDITHYADSVKGRFTISRDNAKNTLYLQMNSLRPEDTAVYWCATDEEYALGPNEFDYYGQGTLVTVSS
B5: NIgG4F5A1(G4S)3 (Fc fusion)
chain 1: DVQLQESGGGLVQPGGSLRLSCAASGSIFSIDIMGWYRQAPGKQRELVATMPEGNYINYADSVKGRLTLSRDKGKNTVYLQLNSLKPEDTAVYYCYGFGVREGRGNVYWGQGTQVTVSGGGGSGGGGSGGGGSGPPCPPCPAPEFLGGPSVFLFPPKPKDTLMISRTPEVTCVVVDVSQEDPEVQFNWYVDGVEVHNAKTKPREEQFNSTYRVVSVLTVLHQDWLNGKEYKCKVSNKGLPSSIEKTISKAKGQPREPQVYTLPPCQEEMTKNQVSLWCLVKGFYPSDIAVEWESNGQPENNYKTTPPVLDSDGSFFLYSRLTVDKSRWQEGNVFSCSVMHEALHNHYTQKSLSLSLGK
chain 2: EVQLLESGGGLVQPGGSLRLSCAASGFTFGNYDMAWVRQAPGKRPEWVSSIDTGGDITHYADSVKGRFTISRDNAKNTLYLQMNSLRPEDTAVYWCATDEEYALGPNEFDYYGQGTLVTVSSGGGGSGGGGSGGGGSGPPCPPCPAPEFLGGPSVFLFPPKPKDTLMISRTPEVTCVVVDVSQEDPEVQFNWYVDGVEVHNAKTKPREEQFNSTYRVVSVLTVLHQDWLNGKEYKCKVSNKGLPSSIEKTISKAKGQPREPQVCTLPPSQEEMTKNQVSLSCAVKGFYPSDIAVEWESNGQPENNYKTTPPVLDSDGSFFLVSRLTVDKSRWQEGNVFSCSVMHEALHNHYTQKSLSLSLGK
B6: NIgG4F5A1(G4S)2 (Fc fusion)
chain 1: DVQLQESGGGLVQPGGSLRLSCAASGSIFSIDIMGWYRQAPGKQRELVATMPEGNYINYADSVKGRLTLSRDKGKNTVYLQLNSLKPEDTAVYYCYGFGVREGRGNVYWGQGTQVTVSGGGGSGGGGSGPPCPPCPAPEFLGGPSVFLFPPKPKDTLMISRTPEVTCVVVDVSQEDPEVQFNWYVDGVEVHNAKTKPREEQFNSTYRVVSVLTVLHQDWLNGKEYKCKVSNKGLPSSIEKTISKAKGQPREPQVYTLPPCQEEMTKNQVSLWCLVKGFYPSDIAVEWESNGQPENNYKTTPPVLDSDGSFFLYSRLTVDKSRWQEGNVFSCSVMHEALHNHYTQKSLSLSLGK
chain 2: EVQLLESGGGLVQPGGSLRLSCAASGFTFGNYDMAWVRQAPGKRPEWVSSIDTGGDITHYADSVKGRFTISRDNAKNTLYLQMNSLRPEDTAVYWCATDEEYALGPNEFDYYGQGTLVTVSSGGGGSGGGGSGPPCPPCPAPEFLGGPSVFLFPPKPKDTLMISRTPEVTCVVVDVSQEDPEVQFNWYVDGVEVHNAKTKPREEQFNSTYRVVSVLTVLHQDWLNGKEYKCKVSNKGLPSSIEKTISKAKGQPREPQVCTLPPSQEEMTKNQVSLSCAVKGFYPSDIAVEWESNGQPENNYKTTPPVLDSDGSFFLVSRLTVDKSRWQEGNVFSCSVMHEALHNHYTQKSLSLSLGK
B7: CIgG4F5A1(RS) (Fc fusion)
chain 1: GPPCPPCPAPEFLGGPSVFLFPPKPKDTLMISRTPEVTCVVVDVSQEDPEVQFNWYVDGVEVHNAKTKPREEQFNSTYRVVSVLTVLHQDWLNGKEYKCKVSNKGLPSSIEKTISKAKGQPREPQVYTLPPCQEEMTKNQVSLWCLVKGFYPSDIAVEWESNGQPENNYKTTPPVLDSDGSFFLYSRLTVDKSRWQEGNVFSCSVMHEALHNHYTQKSLSLSLGKRSDVQLQESGGGLVQPGGSLRLSCAASGSIFSIDIMGWYRQAPGKQRELVATMPEGNYINYADSVKGRLTLSRDKGKNTVYLQLNSLKPEDTAVYYCYGFGVREGRGNVYWGQGTQVTVS
chain 2: GPPCPPCPAPEFLGGPSVFLFPPKPKDTLMISRTPEVTCVVVDVSQEDPEVQFNWYVDGVEVHNAKTKPREEQFNSTYRVVSVLTVLHQDWLNGKEYKCKVSNKGLPSSIEKTISKAKGQPREPQVCTLPPSQEEMTKNQVSLSCAVKGFYPSDIAVEWESNGQPENNYKTTPPVLDSDGSFFLVSRLTVDKSRWQEGNVFSCSVMHEALHNHYTQKSLSLSLGKRSEVQLLESGGGLVQPGGSLRLSCAASGFTFGNYDMAWVRQAPGKRPEWVSSIDTGGDITHYADSVKGRFTISRDNAKNTLYLQMNSLRPEDTAVYWCATDEEYALGPNEFDYYGQGTLVTVSS
B8: NIgG4F5A1(G4S)1 (Fc fusion)
chain 1: DVQLQESGGGLVQPGGSLRLSCAASGSIFSIDIMGWYRQAPGKQRELVATMPEGNYINYADSVKGRLTLSRDKGKNTVYLQLNSLKPEDTAVYYCYGFGVREGRGNVYWGQGTQVTVSGGGGSGPPCPPCPAPEFLGGPSVFLFPPKPKDTLMISRTPEVTCVVVDVSQEDPEVQFNWYVDGVEVHNAKTKPREEQFNSTYRVVSVLTVLHQDWLNGKEYKCKVSNKGLPSSIEKTISKAKGQPREPQVYTLPPCQEEMTKNQVSLWCLVKGFYPSDIAVEWESNGQPENNYKTTPPVLDSDGSFFLYSRLTVDKSRWQEGNVFSCSVMHEALHNHYTQKSLSLSLGK
chain 2: EVQLLESGGGLVQPGGSLRLSCAASGFTFGNYDMAWVRQAPGKRPEWVSSIDTGGDITHYADSVKGRFTISRDNAKNTLYLQMNSLRPEDTAVYWCATDEEYALGPNEFDYYGQGTLVTVSSGGGGSGPPCPPCPAPEFLGGPSVFLFPPKPKDTLMISRTPEVTCVVVDVSQEDPEVQFNWYVDGVEVHNAKTKPREEQFNSTYRVVSVLTVLHQDWLNGKEYKCKVSNKGLPSSIEKTISKAKGQPREPQVCTLPPSQEEMTKNQVSLSCAVKGFYPSDIAVEWESNGQPENNYKTTPPVLDSDGSFFLVSRLTVDKSRWQEGNVFSCSVMHEALHNHYTQKSLSLSLGK

In the experiment the target is mixture of three Der p 2 specific recombinant human IgE clones H10, H12, P4E (human) (UniProt P01854). Briefly: RBL-SX38 IgE displacement, FACS.
Chain of mixture of three Der p 2 specific recombinant human IgE clones H10, H12, P4E (human) (P01854 other isoform, or with tags, fused parts or gaps): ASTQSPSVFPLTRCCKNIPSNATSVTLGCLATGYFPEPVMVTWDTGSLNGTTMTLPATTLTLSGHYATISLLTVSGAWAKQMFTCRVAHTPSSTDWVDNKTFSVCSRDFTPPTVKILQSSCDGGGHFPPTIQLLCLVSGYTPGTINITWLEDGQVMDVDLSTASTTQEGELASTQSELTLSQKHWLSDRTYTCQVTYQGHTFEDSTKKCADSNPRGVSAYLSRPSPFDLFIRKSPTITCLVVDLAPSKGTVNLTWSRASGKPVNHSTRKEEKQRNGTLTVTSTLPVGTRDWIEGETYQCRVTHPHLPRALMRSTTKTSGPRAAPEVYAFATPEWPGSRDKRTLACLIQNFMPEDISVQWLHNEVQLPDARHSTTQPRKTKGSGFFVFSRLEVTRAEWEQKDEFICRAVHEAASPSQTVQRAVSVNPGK
In the case of B1, the Max effect/effect 1 µM is 25%.
Consider B2, for which the EC50 came to 1.2 nM and the Max effect/effect 1 µM is 97%.
For B3 the same measures were 0.7 nM and 99%.
As to B4, the Max effect/effect 1 µM was determined as 19%.
As to B5, the EC50 is 34.8 nM and the Max effect/effect 1 µM stood at 48%.
For B6 the same measures were 21.2 nM and 75%.
As to B7, the Max effect/effect 1 µM is 0%.
With B8, the concentration giving a half-maximal response (EC50) was determined as 28.9 nM and the Max effect/effect 1 µM came out at 67%.
